Data as given in publication PMC9536601, “Binding of adenovirus species C hexon to prothrombin and the influence of hexon on vector properties in vitro and in vivo” (PLoS Pathogens, 2022).

B3: hexon of Ad5.4 (Ad5 vector, hexon HVR7 VINTATL), on the virion (natural protein, human adenovirus type 5)
chain: ATPSMMPQWSYMHISGQDASEYLSPGLVQFARATETYFSLNNKFRNPTVAPTHDVTTDRSQRLTLRFIPVDREDTAYSYKARFTLAVGDNRVLDMASTYFDIRGVLDRGPTFKPYSGTAYNALAPKGAPNPCEWDEAATALEINLEEEDDDNEDEVDEQAEQQKTHVFGQAPYSGINITKEGIQIGVEGQTPKYADKTFQPEPQIGESQWYETEINHAAGRVLKKTTPMKPCYGSYAKPTNENGGQGILVKQQNGKLESQVEMQFFSTTEATAGNGDNLTPKVVLYSEDVDIETPDTHISYMPTIKEGNSRELMGQQSMPNRPNYIAFRDNFIGLMYYNSTGNMGVLAGQASQLNAVVDLQDRNTELSYQLLLDSIGDRTRYFSMWNQAVDSYDPDVRIIENHGTEDELPNYCFPLGGVINTATLTKVKPKTGQENGWEKDATEFSDKNEIRVGNNFAMEINLNANLWRNFLYSNIALYLPDKLKYSPSNVKISDNPNTYDYMNKRVVAPGLVDCYINLGARWSLDYMDNVNPFNHHRNAGLRYRSMLLGNGRYVPFHIQVPQKFFAIKNLLLLPGSYTYEWNFRKDVNMVLQSSLGNDLRVDGASIKFDSICLYATFFPMAHNTASTLEAMLRNDTNDQSFNDYLSAANMLYPIPANATNVPISIPSRNWAAFRGWAFTRLKTKETPSLGSGYDPYYTYSGSIPYLDGTFYLNHTFKKVAITFDSSVSWPGNDRLLTPNEFEIKRSVDGEGYNVAQCNMTKDWFLVQMLANYNIGYQGFYIPESYKDRMYSFFRNFQPMSRQVVDDTKYKDYQQVGILHQHNNSGFVGYLAPTMREGQAYPANFPYPLIGKTAVDSITQKKFLCDRTLWRIPFSSNFMSMGALTDLGQNLLYANSAHALDMTFEVDPMDEPTLLYVLFEVFDVVRVHRPHRGVIETVYLRTPFSAGNATT
notes: hexon of human adenovirus type 5, whole as in the capsid of the virion; HVR7 segment changed; The whole virion was immobilised; source: 293 cells, virions purified by CsCl ultracentrifugation

Experiments:
Experiment in all cases: SPR; Biacore T200; about 300 to 5,000 RU of Ad virions immobilised on a CM5 chip, coagulation factors flowed over at four concentrations, 50 uL/min; 10 mM HEPES, 150 mM NaCl, 1 mM CaCl2, 0.5 mM MgCl2, 0.1% BSA, 0.05% polysorbate 20, pH 7.4; global fit to a 1:1 kinetic interaction model, double referencing
Conditions in all cases: both partners purified
[1] = target: B3
[2] = target: T1, hexon of Ad5.0 (E1/E3-deleted Ad5 vector with wild-type Ad5 capsid), on the virion (human adenovirus type 5, UniProt P04133 2-952)
T1 construct: hexon of human adenovirus type 5, whole as in the capsid of the virion; HVR7 segment VINTETL; The whole virion was immobilised; The other capsid proteins are not written; also called VINTETL; source: 293 cells, virions purified by CsCl ultracentrifugation

[3] = target: T2, hexon of Ad5.5 (Ad5 vector, hexon HVR7 VINTDTL), on the virion (human adenovirus type 5, UniProt P04133 2-952, VINTETL to VINTDTL (HVR7; position worked out from the printed T425A))
T2 construct: hexon of human adenovirus type 5, whole as in the capsid of the virion; HVR7 segment changed; The whole virion was immobilised; source: 293 cells, virions purified by CsCl ultracentrifugation

[4] = target: T3, hexon of Ad5.6 (Ad5 vector, hexon HVR7 VIRTDTL), on the virion (human adenovirus type 5, UniProt P04133 2-952, VINTETL to VIRTDTL (HVR7; position worked out from the printed T425A))
T3 construct: hexon of human adenovirus type 5, whole as in the capsid of the virion; HVR7 segment changed; The whole virion was immobilised; source: 293 cells, virions purified by CsCl ultracentrifugation

[5] = target: T4, human prothrombin (coagulation factor II) (human, UniProt P00734 44-622, γ-carboxylated glutamate residues in the Gla domain (positions not given))
T4 construct: prothrombin (FII), human, plasma-derived; also called Human FII; FII; source: bought: Haematologic Technologies, Inc. (HCP-0010), plasma-derived; dialyzed

B1: mouse prothrombin (coagulation factor II) (natural protein)
chain: not shown
modifications: γ-carboxylated glutamate residues in the Gla domain (positions not given)
notes: prothrombin (FII), mouse, plasma-derived; also called Mouse FII; source: dialyzed
Kd [1]: 36 µM
Kd [2]: 2 µM
Kd [3]: 0.216 µM
Kd [4]: 0.42 µM

B2: bovine coagulation factor X (natural protein, UniProt P00743 41-492, looked up)
chain: ANSFLEEVKQGNLERECLEEACSLEEAREVFEDAEQTDEFWSKYKDGDQCEGHPCLNQGHCKDGIGDYTCTCAEGFEGKNCEFSTREICSLDNGGCDQFCREERSEVRCSCAHGYVLGDDSKSCVSTERFPCGKFTQGRSRRWAIHTSEDALDASELEHYDPADLSPTESSLDLLGLNRTEPSAGEDGSQVVRIVGGRDCAEGECPWQALLVNEENEGFCGGTILNEFYVLTAAHCLHQAKRFTVRVGDRNTEQEEGNEMAHEVEMTVKHSRFVKETYDFDIAVLRLKTPIRFRRNVAPACLPEKDWAEATLMTQKTGIVSGFGRTHEKGRLSSTLKMLEVPYVDRSTCKLSSSFTITPNMFCAGYDTQPEDACQGDSGGPHVTRFKDTYFVTGIVSWGEGCARKGKFGVYTKVSNFLKWIDKIMKARAGAAGSRGHSEAPATWTVPPPLPL
modifications: γ-carboxylated glutamate residues in the Gla domain (positions not given)
notes: coagulation factor X, bovine, plasma-derived; also called Bovine FX; source: bought: Haematologic Technologies, Inc. (BCX-1050), plasma-derived; pretreated with GGACK, dialyzed
Kd [1]: 0.54 µM
Kd [2]: 0.27 µM
Kd [3]: 0.438 µM
Kd [4]: 1.62 µM

B3
Kd [5]: 0.266 µM

B4: mouse coagulation factor X (natural protein, UniProt O88947 41-481, looked up)
chain: ANSFFEEFKKGNLERECMEEICSYEEVREIFEDDEKTKEYWTKYKDGDQCESSPCQNQGACRDGIGGYTCTCSEGFEGKNCELFVRKLCRLDNGDCDQFCREEQNSVVCSCASGYFLGNDGKSCISTAPFPCGKITTGRRKRSVALNTSDSELDLEDALLDEDFLSPTENPIELLNLNETQPERSSDDLVRIVGGRECKDGECPWQALLINEDNEGFCGGTILNEFYILTAAHCLHQARRFKVRVGDRNTEKEEGNEMVHEVDVVIKHNKFQRDTYDYDIAVLRLKTPITFRMNVAPACLPQKDWAESTLMTQKTGIVSGFGRTHEKGRQSNILKMLEVPYVDRNTCKLSTSFSITQNMFCAGYEAKLEDACQGDSGGPHVTRFKNTYYVTGIVSWGEGCARKGKYGIYTKVTTFLKWIDRSMKARVGPTAETPRTAGPPN
modifications: γ-carboxylated glutamate residues in the Gla domain (positions not given)
notes: coagulation factor X, mouse, plasma-derived; also called Mouse FX; source: bought: Haematologic Technologies, Inc. (MCX-5050), plasma-derived; pretreated with GGACK, dialyzed
Kd [1]: 0.0019 µM
Kd [2]: 0.00032 µM
Kd [3]: 0.0025 µM
Kd [4]: 0.00037 µM
